# Source: patent US20180094274A1 (BOARD OF TRUSTEES OF MICHIGAN STATE UNIVERSITY, published 2018)
# T1: BPM1 (yeast two-hybrid) (Arabidopsis, UniProt Q8L765 1-407)
# T1 construct: also called E3 ligase bridge protein BPM1; E3 ligase linker BPM protein; not shown: Y2H fusion partner
# T1 sequence (looked up): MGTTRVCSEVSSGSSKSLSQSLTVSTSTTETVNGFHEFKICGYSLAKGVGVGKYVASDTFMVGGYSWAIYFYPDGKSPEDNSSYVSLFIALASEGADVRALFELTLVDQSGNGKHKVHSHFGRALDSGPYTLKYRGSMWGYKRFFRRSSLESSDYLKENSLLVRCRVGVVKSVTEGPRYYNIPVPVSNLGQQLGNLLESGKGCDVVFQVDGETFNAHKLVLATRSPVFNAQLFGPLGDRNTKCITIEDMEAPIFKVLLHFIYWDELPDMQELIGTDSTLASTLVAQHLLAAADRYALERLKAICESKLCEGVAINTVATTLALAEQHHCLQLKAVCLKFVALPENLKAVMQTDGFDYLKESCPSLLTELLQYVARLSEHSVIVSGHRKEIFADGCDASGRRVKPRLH
# T2: full length AtWRI1 (bait fusion, yeast two-hybrid) (Arabidopsis thaliana, UniProt Q6X5Y6 1-430)
# T2 construct: Transcription factor expressed in yeast as bait fusion; also called Arabidopsis thaliana WRINKLED1; not shown: bait fusion partner of the Y2H vector
# T2 sequence: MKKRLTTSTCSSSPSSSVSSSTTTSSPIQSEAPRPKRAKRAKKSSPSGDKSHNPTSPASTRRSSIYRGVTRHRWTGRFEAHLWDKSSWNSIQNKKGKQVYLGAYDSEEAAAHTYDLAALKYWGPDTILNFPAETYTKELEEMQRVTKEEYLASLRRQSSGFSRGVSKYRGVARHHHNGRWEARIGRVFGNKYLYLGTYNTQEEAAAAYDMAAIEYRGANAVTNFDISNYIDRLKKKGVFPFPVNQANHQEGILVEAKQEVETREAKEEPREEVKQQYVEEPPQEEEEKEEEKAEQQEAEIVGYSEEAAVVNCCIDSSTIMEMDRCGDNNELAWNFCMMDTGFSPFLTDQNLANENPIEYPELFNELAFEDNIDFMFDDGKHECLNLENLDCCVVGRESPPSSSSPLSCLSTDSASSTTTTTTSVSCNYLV
# T3: nYFP-AtWRI1 (Arabidopsis thaliana, UniProt Q6X5Y6 1-430)
# T3 construct: BiFC construct transiently produced in N. benthamiana leaves; also called 35S:nYFP-AtWRI1; not shown: N-terminal half of YFP from the BiFC vector
# T3 sequence: T2 sequence
# B1: nYFP-AtWRI1^1-366 (other)
# chain: MKKRLTTSTCSSSPSSSVSSSTTTSSPIQSEAPRPKRAKRAKKSSPSGDKSHNPTSPASTRRSSIYRGVTRHRWTGRFEAHLWDKSSWNSIQNKKGKQVYLGAYDSEEAAAHTYDLAALKYWGPDTILNFPAETYTKELEEMQRVTKEEYLASLRRQSSGFSRGVSKYRGVARHHHNGRWEARIGRVFGNKYLYLGTYNTQEEAAAAYDMAAIEYRGANAVTNFDISNYIDRLKKKGVFPFPVNQANHQEGILVEAKQEVETREAKEEPREEVKQQYVEEPPQEEEEKEEEKAEQQEAEIVGYSEEAAVVNCCIDSSTIMEMDRCGDNNELAWNFCMMDTGFSPFLTDQNLANENPIEYPELFNEL
# notes: also called AtWRI1^Δ367-430; not shown: N-terminal half of YFP from the BiFC vector
# B2: AtWRI1^1-92 (yeast two-hybrid) (other)
# chain: MKKRLTTSTCSSSPSSSVSSSTTTSSPIQSEAPRPKRAKRAKKSSPSGDKSHNPTSPASTRRSSIYRGVTRHRWTGRFEAHLWDKSSWNSIQ
# notes: Truncated AtWRI1 variant; not shown: Y2H fusion partner
# B3: 14-3-3ν (yeast two-hybrid) (other, Arabidopsis, UniProt Q96300 1-265, looked up)
# chain: MSSSREENVYLAKLAEQAERYEEMVEFMEKVAKTVDTDELTVEERNLLSVAYKNVIGARRASWRIISSIEQKEESRGNDDHVSIIKDYRGKIETELSKICDGILNLLDSHLVPTASLAESKVFYLKMKGDYHRYLAEFKTGAERKEAAESTLVAYKSAQDIALADLAPTHPIRLGLALNFSVFYYEILNSPDRACSLAKQAFDEAISELDTLGEESYKDSTLIMQLLRDNLTLWNSDINDEAGGDEIKEASKHEPEEGKPAETGQ
# notes: also called 14-3-3 nu; not shown: Y2H fusion partner
# B4: cYFP-BPM1 (other, Arabidopsis, UniProt Q8L765 1-407, looked up)
# chain: T1 sequence (looked up)
# notes: BiFC construct transiently produced in N. benthamiana leaves; also called 35S:cYFP-BPM1; BTB/POZ and MATH domain-containing (BPM) 1; not shown: C-terminal half of YFP from the BiFC vector
# B5: AtWRI1^1-77 (yeast two-hybrid) (other)
# chain: MKKRLTTSTCSSSPSSSVSSSTTTSSPIQSEAPRPKRAKRAKKSSPSGDKSHNPTSPASTRRSSIYRGVTRHRWTGR
# notes: as for B2
# Tests used:
# cYFP-BPM1 = biological target: B4; experiment: BiFC, transient expression in N. benthamiana leaves
# Text: (§1) Confocal microscopy and bimolecular fluorescence complementation (BiFC) assays used 35S:YFP-AtWRI1 (including truncated AtWRI1 variants and AtWRI1 site-directed mutants fused to yellow fluorescent protein (YFP)) were generated through GATEWAY system. For BiFC experiments, 35S:nYFP-AtWRI1 (including truncated AtWRI1 variants) and 35S:cYFP-BPM1 were similarly assembled. Constructs were transformed into A. tumefaciens (GV3101 strain). For BiFC experiments to test protein-protein interaction, A. tumefaciens harboring each nYFP and cYFP fusion construct was prepared (each culture was re-suspended to 1.2 OD₆₀₀ in MMA buffer) and adjusted to 0.4 OD₆₀₀ prior to injection into plant leaves. Healthy leaves of N. benthamiana plants were infiltrated by bacterial suspensions with a 1-mL blunt-end syringe. Plants were returned to growth chambers and YFP fluorescence signals were captured by a confocal microscope 2 to 3 d after bacterial infiltration. YFP fluorescence signal intensity was analyzed using ImageJ software.
# (§2) A bimolecular fluorescence complementation (BiFC) assay was used to investigate the interaction between AtWRI1 and a BPM protein (BPM1). AtWRI1 and BPM1 were subcloned to BiFC vectors which generated nYFP-AtWRI1 and cYFP-BPM1 (half N-terminus of YFP and half C-terminus of YFP, respectively). […]
# BPM1 (yeast two-hybrid) [1] = biological target: T1, BPM1 (yeast two-hybrid); experiment: yeast two-hybrid with truncated AtWRI1 variants
# [2] = biological target: T2, full length AtWRI1 (bait fusion, yeast …); experiment: yeast two-hybrid
# nYFP-AtWRI1 = biological target: T3, nYFP-AtWRI1; experiment: BiFC, transient expression in N. benthamiana leaves
# Text: as §1, §2
# BPM1 (yeast two-hybrid) [3] = biological target: T1, BPM1 (yeast two-hybrid); experiment: yeast two-hybrid
binder,measurement,setting,value
B1,binding result,cYFP-BPM1,binds
B2,binding result,BPM1 (yeast two-hybrid) [1],binds
B3,binding result,[2],binds
B4,binding result,nYFP-AtWRI1,binds
B5,binding result,BPM1 (yeast two-hybrid) [3],no binding
